Assay: yeast display, Sf9 membrane polyspecificity reagent, FACS + sequencing; frameworks hold sequencing errors
Outline: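 Polyreactivity labels are assigned by the sorting gate from which each nanobody was recovered. The gates were low and high (top ~1%), set on anti-HA fluorescence for expression and streptavidin fluorescence for reagent binding. Before sorting, galactose-induced (36–48 hours) yeast display cells were stained for 1 hour at 4 °C with 10% biotinylated, detergent-solubilized Sf9 membrane reagent.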

Sequence | polyreactivity (PSR sort gate)
QVHLVDSGGCLVQAGGSLRLSCAASGRTFSAYAMGWYRQAPGKEREVVAAISRSGGSTYYADSVKGRFTISRDNAKNTVYLPMNSLTPEDTAVYDCAVRWPSARIPVKLEDWGQGTQVTVSS | high polyreactivity
QVHLVDSGGGLVQAGGILRLSCAASGRIFVNTMGCYRQAPGKEMELVAAITRSGVSTYYADSVKGRFTISRDNAKNTVYLQMNSLKPEDTAVYYCAAREWSGPKIYPPYRYNSWGQGTQVTVSS | high polyreactivity
QVHLVDSGGGLVQAGGRLRLSCPASVSTFYYYVKGWYRQPPGKERELVAAISSGCHTNYADSVKGRFTISRDNAKNTVYLQMNSLIPEDSAVYYCAAKPRRGTLLRYGYWGQGTQVTVSS | high polyreactivity
QVHLVDSGGGLVQAGGSLRLRCAASGSSFNPNAMGLYRQDPGKERELVAAITSGGSTYYADSVKGRFTISRDNAKNTVYLQINSLKQEDTAVYYCNKALTSKDYPVRTVERDYWGQGTKVTVSS | low polyreactivity
QVHLVDSGGGLVQAGGSLRLSCAASGFNFTYYGMGSYRQAPGKERELVAAISESCGSTYYADSVKGRFTISRDNAKNTVYLQMTSLKPEDTAVYYCAADVTKRASRDYYWGQGTQVTVSS | high polyreactivity
QVHLVDSGGGLVQAGGSLRLSCAASGRIIDLYAMGCYRQAPGKEWELVAVIDIRDTSTYYADSVKGRFTISRDNAKNTVYLEMNSLKPEDTSVYYCAADYLVYDWYTYGYWGQGTQVTVSS | high polyreactivity
QVHLVDSGGGLVQEGGSLRLSCAASGFISPKYRMGWYRQAPRKERELVAANTTSDGSTSYADSVKGRFRISRDNAKTTVYLQMISLKPEDSAVYYCAAGYESWRSWVRRYLRMDYWGQGTQVTLSS | high polyreactivity
QVHLVDSGGGLVQEGGSLRLSCGASGSTFQSYAMGWYRQSPGKERELVAVIDSGGRTYYADSVKGRFTISRDNAKNTVYLQINSLKPEDTAVYYCAARGPVGNGWRYRPWHDYWGQGTQVTVSS | high polyreactivity
QVHLVESAGGLVQAGGSLRLSCAASGITFSDNAMGWYRPAPGKETEVVAAISWGGGSTYYADSVKGRFTISRDNAKNTVYLQMNSLKPEDTAFYYCNAGGYLISDVDRVGYWGQGTQVTVSS | low polyreactivity
QVHLVESAGGLVQAGGSLRLSCAASGRIFTPYAMGWYRQAPGKERELVAVIRDGSTYYADSVKGRFTISRDNAKNTVYLQMNSLKPEDSAVYYCRYDIWVWWSGAYDYWGQGTQVTVSS | low polyreactivity
QVHLVESAGGLVQAGGSLRLSCDASGFIFPRYDMGSYRQAPGKEREMVAAISRRGGSTNYADSVKGRFTISRDNAKNTVYLQMNSLKPEATAVYYCNADTTGYSSYGYDYWGQGSQVTVSS | high polyreactivity
QVHLVESGAGLVKAGGSLRLSCAASGRTFRYNAMGWYRQQPGNERELVATITTRGGSTYYADSVKGRFTISRDNAKNTVYLQMNSLKPEDTAVYYCATKWPVYPTGYDYWGQGTQVTVSS | low polyreactivity
QVHLVESGAGLVQAGGILRLSCAASGRIFAHYALGWYRQAPGKERELVAAISRGGSTKYADSVKGRFTISRDHAKNTVYFQMNSLKPEDTAVYYCARQLWGSPYGAYYAGDYWGQGTQVTVSS | low polyreactivity
QVHLVESGGCLVQAGGSLRLSCSASGSIFGWYAMGWYRQAPGKEREFVAAISYSGGSTYYADSVKGRFTNSRDIAKITVYLQINSLKPEDTAVYYCNARPYWYFPYRVPEGYDYWGQGTQVTVSS | high polyreactivity
QVHLVESGGGIVQAGGSLRLSCAASGIIFHWYAMGWYRQAPGKERELVAAITQSGGSTSYADSVKGRFTISRDNAKNTVYLQMNSLKPEDTAVYNCSKDYAYTLWENYYAFNYWGQGTQVTVSS | low polyreactivity
QVHLVESGGGKVQAGGRLRLSCAASGSTFFRYAMGWYRQAPGKERELVAAISWSGGTTYYADSVKGRFPISRDIAKNTVYLQMNSLKPEDTAVYYCNAVRQGHILDYWGQGTQVTVSS | low polyreactivity

From the nanobody polyreactivity screen of Harvey et al. (2022)
